The target of test [1] is T1, DFA0.
T1 construct: Bivalent connector
T1 chain: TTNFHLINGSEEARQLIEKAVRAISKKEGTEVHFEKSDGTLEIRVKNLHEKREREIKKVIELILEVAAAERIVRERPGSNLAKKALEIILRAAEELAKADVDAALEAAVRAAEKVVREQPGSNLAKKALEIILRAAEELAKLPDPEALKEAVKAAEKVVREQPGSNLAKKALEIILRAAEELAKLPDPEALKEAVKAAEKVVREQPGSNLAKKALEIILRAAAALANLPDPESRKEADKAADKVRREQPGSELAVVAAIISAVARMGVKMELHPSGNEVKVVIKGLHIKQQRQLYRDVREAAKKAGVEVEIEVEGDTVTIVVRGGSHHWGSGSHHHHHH
The experiment in a line: SEC of mixed components; linear tetramer listed in Table 6, neighbours in the chain.

Test [2] has as its target T2, LHD101 chainA.
T2 construct: also called LHD101A
T2 chain: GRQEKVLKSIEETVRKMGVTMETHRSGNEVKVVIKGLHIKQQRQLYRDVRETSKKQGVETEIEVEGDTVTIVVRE
Put plainly: BLI steady-state titration, biotinylated unfused LHD101A on a streptavidin sensor. An excerpt: FIG. 8A-E. Characterization LHD binding in vitro. A: Designed models heterodimers (top row). Middle row, SEC binding experiments performed on a Superdex™ 75 column. Bottom row, biolayer interferometry kinetic binding traces. […] C: Kinetic binding traces from BLI. Equilibrium responses were used to fit equilibrium binding curves D: Equilibrium binding curves of LHDs from biolayer interferometry binding assays with data from C. […] Biotinylated unfused protomers were immobilized on streptavidin coated biosensors.
Biolayer interferometry experiments were performed on an OctetRED96 BLI system (ForteBio, Menlo Park, CA). Streptavidin coated biosensors were first equilibrated for at least 10 minutes in Octet buffer (10 mM HEPES pH 7.4, 150 mM NaCl, 3 mM EDTA, 0.05% Surfactant P20) supplemented with 1 mg/ml Bovine Serum Albumin (SigmaAldrich). Enzymatically biotinylated designs were immobilized onto the biosensors by dipping the biosensors into a solution with 10-50 nM protein for 30-120 s. This was followed by dipping in fresh octet buffer to establish a baseline for 120 s. Titration experiments were performed at 25° C. while rotating at 1,000 r.p.m. […]

The target in test [3] is T3, DFX.
T3 construct: Bivalent connector
T3 chain: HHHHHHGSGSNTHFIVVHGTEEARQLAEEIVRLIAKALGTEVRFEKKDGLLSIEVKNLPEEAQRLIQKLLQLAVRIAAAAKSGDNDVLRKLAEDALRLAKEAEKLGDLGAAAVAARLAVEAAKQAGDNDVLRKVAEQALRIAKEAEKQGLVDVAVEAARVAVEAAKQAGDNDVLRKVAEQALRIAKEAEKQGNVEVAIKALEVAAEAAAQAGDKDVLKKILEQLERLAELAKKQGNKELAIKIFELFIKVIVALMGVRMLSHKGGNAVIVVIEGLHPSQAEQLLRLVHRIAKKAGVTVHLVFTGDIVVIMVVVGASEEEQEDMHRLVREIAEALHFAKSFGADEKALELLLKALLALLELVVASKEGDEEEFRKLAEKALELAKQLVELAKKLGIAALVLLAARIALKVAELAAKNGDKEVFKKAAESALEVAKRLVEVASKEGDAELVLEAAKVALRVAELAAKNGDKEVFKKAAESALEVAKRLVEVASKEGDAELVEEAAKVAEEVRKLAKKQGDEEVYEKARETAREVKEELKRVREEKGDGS
The experiment in a line: negative-stain EM of the heterotrimer; components named in the legend. On the procedure:
SEC peak fractions were concentrated prior to negative stain EM screening. Samples were then immediately diluted 5 to 150 times in TBS buffer (25 mM Tris pH 8.0, 25 mM NaCl) depending on sample concentration. A final volume of 5 μL was applied to negatively glow discharged, carbon-coated 400-mesh copper grids (01844-F, TedPella, Inc.), then washed with Milli-Q™ Water and stained using 0.75% uranyl formate as previously described (53). Air-dried grids were imaged on a FEI Talos L120C TEM (FEI Thermo Scientific, Hillsboro, OR) equipped with a 4K×4K Gatan OneView™ camera at a magnification of 57,000× and pixel size of 2.51. Micrographs were imported into CisTEM software or cryoSPARC™ software and a circular blob picker was used to select particles which were then subjected to 2D classification. Ab initio reconstruction and homogeneous refinement in Cn symmetry were used to generate 3D electron density maps (54, 55).

The target in test [4] is T4, LHD274 B62.
T4 construct: also called LHD274 B DHR62 C
T4 single chain, LHD274 chain B fused to DHR62: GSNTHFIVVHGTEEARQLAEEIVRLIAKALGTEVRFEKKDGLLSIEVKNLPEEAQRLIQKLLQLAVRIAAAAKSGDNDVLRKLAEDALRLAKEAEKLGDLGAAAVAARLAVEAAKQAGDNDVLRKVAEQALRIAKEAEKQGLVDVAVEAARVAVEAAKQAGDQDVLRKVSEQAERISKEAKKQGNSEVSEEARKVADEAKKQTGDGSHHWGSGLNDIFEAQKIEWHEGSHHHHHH
The experiment in a line: SEC binding assay (Superdex 200, normalised A230) of A, B and the mixture AB.

B1: 101B62 (designed binder)
chain: HHHHHHGSGLNDIFEAQKIEWHEAENLYFQSGSNDEKRKRAEKALQRAQEAEKKGDVEEAVRAAQEAVRAAKESGDNDVLRKVAEQALRIAKEAEKQGNVEVAVKAARVAVEAAKQAGDNDVLRKVAEQALRIAKEALKQGNVDVAAKAAQVAEEAAKQAGDQDVLRKVKEVQIEIVLAAIELTVRKMGVTMETHRSGREVKVVIKGLHESQQEQLLEDVLRIAELAGVRVRIRFKGDTVTIVVRG
notes: also called LHD101B62
With B1, the binding result in test [1] and in test [2] was “binds” throughout.

B2: 274A53 (designed binder)
chain: TTNFHLINGSEEARQLIEKAVRAISKKEGTEVHFEKSDGTLEIRVKNLHEKREREIKKVIELILEVAAAERIVRERPGSNLAKKALEIILRAAEELAKADVDAALEAAVRAAEKVVREQPGSNLAKKALEIILRAAEELAKLPDPEALKEAVKAAEKVVREQPGSELAKKALEIIERAAEELKKSPDPEAQKEAKKAEQKVREESGSHHWGSGLNDIFEAQKIEWHEGSHHHHHH
notes: also called LHD274A DHR53 stop; LHD274A53
As to B2, the binding result in test [3] and in test [4] was “binds” each time.

For the origin of these results see US20240368233A1 (University of Washington, published 2024).
